# According to paper doi:10.1101/2022.09.23.509211 (bioRxiv, 2022):
# B1: Mouse metallothionein-3 (MT-3), recombinant, cleaved WT MT-3 (natural protein)
# chain: not shown
# Biological target: Rabbit skeletal muscle actin (actin filaments, F-actin) (rabbit, UniProt P68135 1-377)
# Experiment: co-sedimentation
binder,measurement,value
B1,Kd,> 20 µM
